How the values were obtained:
[1] = target: SARS-CoV-2 spike S1 subunit (SARS-CoV-2 (wild type), UniProt P0DTC2 16-685); conditions: protein: commercial; tags: His
[2] = target: Human alpha-thrombin (human, UniProt P00734;P00734 315-363;364-622)
[3] = target: SARS-CoV-2 spike RBD (SARS-CoV-2, UniProt P0DTC2 319-541); conditions: protein: commercial
[4] = target: HCoV-229E RBD (HCoV-229E, UniProt P15423 293-435); assay: dot blot (filter binding); 50 nM protein; conditions: protein: recombinant; tags: C-terminal His; hairpin
[5] = target: SARS-CoV-1 full spike protein (SARS-CoV-1, UniProt P59594 14-1195); conditions: protein: commercial; chain copies: 3; label: 5'-32P; hairpin
[6] = target: SARS-CoV-1 RBD (SARS-CoV-1, UniProt P59594 306-527); conditions: protein: recombinant; tags: C-terminal His; label: 5'-32P; hairpin
[7] = target: MERS-CoV RBD (MERS-CoV, UniProt K9N5Q8 367-588); conditions: protein: recombinant; tags: C-terminal His; label: 5'-32P; hairpin
[8] = target: SARS-CoV-2 spike S1 subunit (SARS-CoV-2 (wild type), UniProt P0DTC2 16-685); conditions: protein: commercial; tags: His; remark: listed apart in the source

HCoV-229E RBD, sequence (P15423 293-435): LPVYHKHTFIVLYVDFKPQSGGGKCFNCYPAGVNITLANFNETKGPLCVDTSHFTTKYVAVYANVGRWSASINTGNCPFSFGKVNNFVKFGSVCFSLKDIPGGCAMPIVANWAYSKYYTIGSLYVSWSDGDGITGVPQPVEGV
MERS-CoV RBD, sequence (K9N5Q8 367-588): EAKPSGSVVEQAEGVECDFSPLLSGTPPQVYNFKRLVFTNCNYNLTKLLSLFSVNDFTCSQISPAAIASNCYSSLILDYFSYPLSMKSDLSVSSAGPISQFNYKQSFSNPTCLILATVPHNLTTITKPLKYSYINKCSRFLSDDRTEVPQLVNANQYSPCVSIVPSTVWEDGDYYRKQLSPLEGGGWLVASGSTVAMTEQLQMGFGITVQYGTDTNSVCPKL

B1: MSA7 (structured_DNA)
DNA: TTACGTCAAGGTGTCACTCCTGGCTGTGGGGTTCGGGGTCACTATTTGTCGGGAGGGGAGGAAGCATCTCTTTGGCGTG
With B1 the Kd [1] was 76.2 ± 10.5 nM.

B2: MSA5-T4 (structured_DNA)
DNA: CTTCCACGGGTTTGGCGTCGGGCCTGGCGGGGGGATAGTGCGGTGGAAG
B2 gave a Kd [1] of 6.3 nM.

B3: MSA3 (structured_DNA)
DNA: TTACGTCAAGGTGTCACTCCTACAGCGTCTGGTTGGTTTGGTTGGATCTTCGATCGCTGTGAAGCATCTCTTTGGCGTG
For B3, the Kd [1] was 1.9 ± 0.1 nM.

B4: MSA5-T2 (structured_DNA)
DNA: ACGGGTTTGGCGTCGGGCCTGGCGGGGGGATAGTGCGGT
B4 was tested, and the Kd [1] was 10.1 nM.

B5: MSA8 (structured_DNA)
DNA: TTACGTCAAGGTGTCACTCCATGTGGGTGGGGGTCATTCTTCAGTGTCGGGAGGGGGTGGAAGCATCTCTTTGGCGTG
With B5 the Kd [1] was 23 ± 1 nM.

B6: MSA5-T6 (structured_DNA)
DNA: TCCACGGGTTTGCTGGCGGGGGGATAGTGCGGTGGA
B6 gave a Kd [1] of 264 nM.

B7: MSA10 (structured_DNA)
DNA: TTACGTCAAGGTGTCACTCCGCGGGTTTGGCTCCGGGCCTGGCGTTGCGGTCTGCTCCCCGAAGCATCTCTTTGGCGTG
With B7 the Kd [1] was 134 ± 21.3 nM.

B8: MSA5-T7 (structured_DNA)
DNA: TCCACGGCGTCGGGCCTGGCGGGGGGATAGTGCGGTGGA
B8 showed a Kd [1] of 22.8 nM.

B9: MSA5-T3 (structured_DNA)
DNA: CTCCACGGGTTTGGCGTCGGGCCTGGCGGGGGGATAGTGCGGTGGAG
B9 gave a Kd [1] of 7.3 nM.

B10: MSA4 (structured_DNA)
DNA: TTACGTCAAGGTGTCACTCCTGTGGGCGGGGGCGGTTGATTGTATTACTGTCGGGAGGGGGAAGCATCTCTTTGGCGTG
With B10 the Kd [1] was 27.6 ± 0.6 nM.

B11: MSA6 (structured_DNA)
DNA: TTACGTCAAGGTGTCACTCCTCGGGGGGGTTTGGCACTGGGCCTGGCAGTACCGGGTCGCGAAGCATCTCTTTGGCGTG
B11 showed a Kd [1] of 16.2 ± 2.3 nM.

B12: MSA3-T2 (structured_DNA)
DNA: ACAGCGTCTGGTTGGTTTGGTTGGATCTTCGATCGCTGT
Binder B12 has a Kd [1] of 1.9 nM.

B13: MSA9 (structured_DNA)
DNA: TTACGTCAAGGTGTCACTCCTTCGTGTGGGTGGGGTCCTAACTTTCCTGTCGGGGTCGGGGAAGCATCTCTTTGGCGTG
For B13, the Kd [1] was 37.4 ± 1.6 nM.

B14: MSA1-T2 (structured_DNA)
DNA: TTCCGGTTAATTTATGCTCTACCCGTCCACCTACCGGAA
B14: binds [1].

B15: MSA1-T4 (structured_DNA)
DNA: CCGGTTAATTTATGCTCTACCCGTCCACCTACCGG
B15 was tested, and the “fold Kd increase” value [1] was 36 fold Kd increase vs MSA1-T3.

B16: MSA5 (structured_DNA)
DNA: TTACGTCAAGGTGTCACTCCACGGGTTTGGCGTCGGGCCTGGCGGGGGGATAGTGCGGTGGAAGCATCTCTTTGGCGTG
For B16, the binding result [2] was “no binding”, the Kd [3] was 4 ± 0.6 nM and the Kd [1] was 2.7 ± 0.2 nM. B16: no binding [4]; no binding [5]; no binding [6]. B16: no binding [7].

B17: MSA1-T3 (structured_DNA)
DNA: TCCGGTTAATTTATGCTCTACCCGTCCACCTACCGGA
For B17, the Kd [1] was 3.1 nM.

B18: MSA2 (structured_DNA)
DNA: TTACGTCAAGGTGTCACTCCTCAGTGGGAGGGGGTCCATGTCTTGTCGGGGTCGGGGGTGGAAGCATCTCTTTGGCGTG
B18 was tested, and the Kd [1] was 9.2 ± 0.2 nM.

B19: MSA1 (structured_DNA)
DNA: TTACGTCAAGGTGTCACTCCCACTTTCCGGTTAATTTATGCTCTACCCGTCCACCTACCGGAAGCATCTCTTTGGCGTG
In the case of B19, the binding result [2] is reported as “no binding”, the Kd [8] is reported as 1.8 ± 0.4 nM and the binding result [4] is reported as “no binding”.

B20: MSA5-T1 (structured_DNA)
DNA: TCCACGGGTTTGGCGTCGGGCCTGGCGGGGGGATAGTGCGGTGGA
Binder B20 has a Kd [1] of 8.4 nM.

— publication PMC8287928
